Measured values from the domain aggregation screens of Martell et al. (2025).

Assay: soluble fraction after stress (log2 fold change); higher = more stays soluble; pooled small domains, quantitative proteomics
Details: stress: 50 degC
Summary of the method: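 Custom libraries of small protein domains were pooled and measured in a high-throughput format, with quantitative proteomics as the read-out. Each library was stressed at 50°C. The value is the log2 fold change in the amount of each protein that stays soluble after stress, used as a measure of aggregation propensity; higher values mean more of the protein stays soluble.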

| Sequence | soluble fraction (log2) |
| --- | --- |
| HMVLAEPLSERELDILRLLAAGDSNKEIAAVLYITEGTVKNHVTNILGKLDARDRTQAALRARELGL | -0.801 |
| HMVLGDQTFQSASAPKVFFGGDAAYGPKNIITAVAHGHDAAVSIDRFLHGEDVSKRPGPQVNLVS | 0.144 |
| HMVLRPDDVEDSLWREWVSHRKAKRAAVTEGVLKTFRQEATKASFTLADAMRKSIDRGWTGFEAEWVARET | -0.074 |
| HMVLSPAQVRRALMVSGLFTEARVARQLGVPMDLKQILRIILRNTPPQSAMARELESAIDEIESRNAMRD | -1.62 |
| HMVLSTRERMSNILATLKGGHFVNFSDLFTPEEGRLGVVVTFLAMLELIKESLLDIVQHEVLGPIHVKARV | -0.0744 |
| HMVLTGTIKKYNNERGFGFISTSNFGDVFFHIKDFQKGEQPIPGREVYFEVVKKENKKRAIHVYYSD | -1.02 |
| HMVLVSNYGEVVRKARERKGLDHGSLAMKISEKKSIITSVESGNMKPNEKLIKKLENFLNINLM | -1.33 |
| HMVMIPDLVGETIEDAKDILEGLGFEVEVRSEFPESDWGRPFARVTSLSPSAGQEVAKGTLVIIRSF | -0.288 |
| HMVMLIVMNHTASQADIDKVIEVVSGMGFTAAPIPGGERTAIGVLGNKGYVDDSTIRDLPGVQQAIHVSKP | 0.0615 |
| HMVMSVGENIAYFRKKLGLTQEMLSERIGVTAQAVSKWENGVTNPDISLLPRISEALGIGIGDLFD | -0.299 |
| HMVNAVKFAIEKMPYKYSSLLTLKYVMGYSGKEIAEITGLSETNVRQQLLKGRKLLESMLEE | -2.43 |
| HMVNGTPADPYDVLGVESSASPEELRAAWQTLVRQNHPDQLMARGVPLEAVKLAEARLVAINQAWDDLTK | 0.0363 |
| HMVNHVGITVSNLERSIQFYEALTGKKIANQDTIGGKRMAQTQGLADTLIKYANLHLDNLNIDLLEYVE | -0.386 |
| HMVNIAVMTVSDTRTEADDKSGSLLVSKIEGDGHVLADRAIITDDVPRIIAKLKEWIESPQVDVVVT | 0.0468 |
| HMVNINEVEVSRDLAHAKVFVTFVGDRTDEINTQALKVLNAAQGFLRSRIASNNHMRTTPRIHF | -0.663 |
| HMVNIPEIAKKFGKSTSEVFEQIQIGEKHEMEHTNDPKKARKIALDHLSDDMDYYKKLKKLG | 0.27 |
| HMVNLKQVELREHHPWVGHKIKELDISRHTLIVMIRRGDNAIVPNGDTLIKSGDIVFVFSKR | -1.05 |
| HMVNPHPVYRSWGLLYVEARDGDSLESIAKEFGFSVKKLAKYNEVPKDYPLEAGDIVYLEKKKK | -1.59 |
| HMVNPIDFYLLFRTELQRLAEHPITVDRLTEVTGLNKLQVLDWLKRAEQDGLVKKLNRPTRYQLN | -0.0401 |
| HMVPAMGSLTLIKGGVNLRNAPGGLTIAQLDRGLVLSYTKFVQKDGYTWYLVNSPKGTGYVRSDVVQLGS | -0.251 |
| HMVPDGFDQLTEREYQVAMAVGKGLNNKEIASQLGLGERTVKAHLTTTFEKLHVRDRVQLALIVNRL | -0.556 |
| HMVPDVVGKDYALAQAELEGANLVVAKGSSRYDDTLPAGVVLATDPKVGTVVKPGAKVTVILSK | 0.251 |
| HMVPLSMLTEGQIFRGQVLDITSQGIKIQLNPEQILFARLGEQVELNIGQQMAFQVRENKGDQLIIHPMQN | 0.0382 |
| HMVPVQLTPRELQVARLAAHGASSPEIAAELRVSRRTVDNQLGRVYAKLGIAGRAELAAALSRLPVSV | -0.0808 |
| HMVPVSIYAYNKIKTAILNNELMPGEKLVEASLAETLNMSRTPIREALRQLEQEGFVTYYPQKGSIVSH | -0.657 |
| HMVQAQGARIREARVQRGLSQAQLGEPRYSGSYISHIENGRRSPGTDVLAFIAARLGLEPGALDS | -0.504 |
| HMVQIFIPVVHDDHWFLIVFSREEDTFYVLDSLPSLSRISTINGIISTLKEHLQQASVGPQYSVKVLPVK | -0.172 |
| HMVQLAEGERYRRIQEANDFINRQQWPGKAAMGRLKDTEKAQYNLWLDYLDALEAVDTSSAPKINWPVPPE | 0.167 |
| HMVQQAVNMAKPGKLFTGPSPTSKALRDLDAGAMLYPTGEKQGPFWKVQDELGNEGWVAMGLLQLA | 0.175 |
| HMVQVDNELTEFSVQSITRGIDALGEVTIRVTAPDGGVYTGRGADNDIIVSSTKAYLNALNRLLNDK | -0.229 |
